T1: RAC1 P29S (Ras-related C3 botulinum toxin substrate 1) peptide on HLA-A*02:01 (human)
T1 peptide: FSGEYIPTV

B1: T5 (TCR, V domains shown)
Valpha: GENVEQHPSTLSVQEGDSAVIKCTYSDSASNYFPWYKQELGKGPQLIIDIRSNVGEKKDQRIAVTLNKTAKHFSLHITETQPEDSAVYFCAASLGSGNTPLVFGKGTRLSVIA
Vbeta: DVKVTQSSRYLVKRTGEKVFLECVQDMDHENMFWYRQDPGLGLRLIYFSYDVKMKEKGDIPEGYSVSREKKERFSLILESASTNQTSMYLCASSLHSGRDTQYFGPGTRLTVL
B2: T2 (TCR, V domains shown)
Valpha: GENVEQHPSTLSVQEGDSAVIKCTYSDSASNYFPWYKQELGKGPQLIIDIRSNVGEKKDQRIAVTLNKTAKHFSLHITETQPEDSAVYFCAASRGGAQKLVFGQGTRLTINP
Vbeta: DTAVSQTPKYLVTQMGNDKSIKCEQNLGHDTMYWYKQDSKKFLKIMFSYNNKELIINETVPNRFSPKSPDKAHLNLHINSLELGDSAVYFCASSQLAGGPLYNEQFFGPGTRLTVL
B3: T6 (TCR, V domains shown)
Valpha: GESVGLHLPTLSVQEGDNSIINCAYSNSASDYFIWYKQESGKGPQFIIDIRSNMDKRQGQRVTVLLNKTVKHLSLQIAATQPGDSAVYFCAENRGANSKLTFGKGITLSVRP
Vbeta: DAGVIQSPRHEVTEMGQEVTLRCKPISGHNSLFWYRQTMMRGLELLIYFNNNVPIDDSGMPEDRFSAKMPNASFSTLKIQPSEPRDSAVYFCASSFTGGFYGYTFGSGTRLTVV
B4: T1 (TCR, V domains shown)
Valpha: EDQVTQSPEALRLQEGESSSLNCSYTVSGLRGLFWYRQDPGKGPEFLFTLYSAGEEKEKERLKATLTKKESFLHITAPKPEDSATYLCAVQTSQGGSEKLVFGKGTKLTVNP
Vbeta: DTEVTQTPKHLVMGMTNKKSLKCEQHMGHRAMYWYKQKAKKPPELMFVYSYEKLSINESVPSRFSPECPNSSLLNLHLHALQPEDSALYLCASSQDASGIYYEQYFGPGTRLTVT
B5: T3/T4, chain combination TRAV5/TRBV20-1 (TCR, V domains shown)
Valpha: GEDVEQSLFLSVREGDSSVINCTYTDSSSTYLYWYKQEPGAGLQLLTYIFSNMDMKQDQRLTVLLNKKDKHLSLRIADTQTGDSAIYFCAESKRFSDGQKLLFARGTMLKVDL
Vbeta: GAVVSQHPSWVICKSGTSVKIECRSLDFQATTMFWYRQFPKQSLMLMATSNEGSKATYEQGVEKDKFLINHASLTLSTLTVTSAHPEDSSFYICSARDLITDTQYFGPGTRLTVL

Tests used:
[1] = molecular target: T1, RAC1 P29S (Ras-related C3 botulinum …); assay: multimer staining
[2] = molecular target: T1, RAC1 P29S (Ras-related C3 botulinum …); assay: cytokine release

Row | Binder | binding result [1] | binding result [2]
1 | B1 | recognises | –
2 | B2 | – | recognises
3 | B3 | recognises | –
4 | B4 | – | recognises
5 | B5 | recognises | –

Reference: patent US20150307585A1 (published 2015)
